Source: doi:10.1101/2025.07.29.667502, “Single-Molecule FRET Reveals Two T4 Phage MR Complex Exonuclease States Regulated by the Mre11 Dimer Interface” (bioRxiv, 2025)

Molecular target: T1, T4 Rad50 (wild type) (bacteriophage T4, UniProt P04522 1-560)
T1 construct: Rad50 (gp46) of bacteriophage T4; the introduction says that the T4 complex is purified without truncation of Rad50's coiled-coil; also called WT Rad50; gp46; source: E. coli BL21 (DE3), purified (nickel column)
T1 sequence (looked up): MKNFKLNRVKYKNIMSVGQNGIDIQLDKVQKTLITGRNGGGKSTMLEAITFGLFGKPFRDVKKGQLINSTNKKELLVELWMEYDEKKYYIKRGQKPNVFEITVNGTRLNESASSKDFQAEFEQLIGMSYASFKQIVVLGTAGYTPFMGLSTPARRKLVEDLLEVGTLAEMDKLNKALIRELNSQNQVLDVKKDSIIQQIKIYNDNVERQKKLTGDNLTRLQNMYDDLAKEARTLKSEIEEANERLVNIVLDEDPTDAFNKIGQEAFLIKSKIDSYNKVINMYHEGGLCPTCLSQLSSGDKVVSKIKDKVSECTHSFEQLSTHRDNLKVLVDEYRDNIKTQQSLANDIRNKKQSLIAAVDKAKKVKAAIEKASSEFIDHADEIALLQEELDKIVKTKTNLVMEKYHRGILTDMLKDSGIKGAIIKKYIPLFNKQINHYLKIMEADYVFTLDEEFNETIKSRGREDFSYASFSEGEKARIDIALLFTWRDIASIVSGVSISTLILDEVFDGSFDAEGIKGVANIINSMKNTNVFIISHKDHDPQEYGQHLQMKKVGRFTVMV
Test: negative-stain EM; WT T4-MR complex with ATPγS, in the absence of DNA
Settings: both partners purified

B1: T4 Mre11 (wild type) (enzyme, bacteriophage T4, UniProt P04521 1-339, looked up)
chain: MKILNLGDWHLGVKADDEWIRGIQIDGIKQAIEYSKKNGITTWIQYGDIFDVRKAITHKTMEFAREIVQTLDDAGITLHTIVGNHDLHYKNVMHPNASTELLAKYPNVKVYDKPTTVDFDGCLIDLIPWMCEENTGEILEHIKTSSASFCVGHWELNGFYFYKGMKSHGLEPDFLKTYKEVWSGHFHTISEAANVRYIGTPWTLTAGDENDPRGFWMFDTETERTEFIPNNTTWHRRIHYPFKGKIDYKDFTNLSVRVIVTEVDKNLTKFESELEKVVHSLRVVSKIDNSVESDDSEEVEVQSLQTLMEEYINAIPDITDSDREALIQYANQLYVEATQ
notes: Mre11 (gp47) of bacteriophage T4; Used together with WT Rad50 as the WT-MR complex; also called WT Mre11; gp47; source: E. coli BL21 (DE3), purified (chitin column)
B1: binds.
